Assay results reported in publication PMC4622719.
Where two headings read alike, the source gives them in different places.

Columns and labels:
adalimumab (human) [1] = experiment: BLI
adalimumab (human) [2] = experiment: BLI; remark: listed apart in the source
[3] = molecular target: human neonatal Fc receptor (human) (UniProt P55899); experiment: SPR
UniProt P55899, sequence (P55899 24-297): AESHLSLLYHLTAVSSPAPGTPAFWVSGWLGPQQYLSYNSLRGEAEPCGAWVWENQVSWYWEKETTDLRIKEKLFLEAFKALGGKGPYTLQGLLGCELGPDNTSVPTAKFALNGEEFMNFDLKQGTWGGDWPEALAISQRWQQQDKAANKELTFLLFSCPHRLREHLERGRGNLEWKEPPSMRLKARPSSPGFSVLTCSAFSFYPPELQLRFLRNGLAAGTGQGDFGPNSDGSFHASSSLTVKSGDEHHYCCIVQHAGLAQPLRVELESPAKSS

Substance | Kd (adalimumab (human) [1]) [pM] | koff (adalimumab (human) [1]) [s⁻¹] | kon (adalimumab (human) [1]) [M⁻¹ s⁻¹] | koff (adalimumab (human) [2]) [s⁻¹] | KD1 [3] [nM] | KD2 [3] [nM] | ka1 [3] [M⁻¹ s⁻¹] | ka2 [3] [M⁻¹ s⁻¹] | kd1 [3] [s⁻¹] | kd2 [3] [s⁻¹]
recombinant human tumor necrosis factor (from UniProt P01375 77-233) (ligand) | 4.6 | 5.5e-06 | 1.32e+06 | 4.81e-05 |  |  |  |  |  | 
adalimumab (antibody) |  |  |  |  | 8.77 | 467 | 906000 | 362000 | 0.0073 | 0.141
